We go through 31 molecules from article PMC6445162, “Effects of NS2B-NS3 protease and furin inhibition on West Nile and Dengue virus replication” (Journal of Enzyme Inhibition and Medicinal Chemistry, 2017).

B1: Phac-Lys-Lys-Arg-Gly-Gly-NH2 (peptide)
peptide: KKRGG
HELM: PEPTIDE1{[O=C(Cc1ccccc1)[*:2]].K.K.R.G.G.[am]}$$$$V2.0
SMILES: N=C(N)NCCC[C@H](NC(=O)[C@H](CCCCN)NC(=O)[C@H](CCCCN)NC(=O)Cc1ccccc1)C(=O)NCC(=O)NCC(N)=O

Peptide text beside a SMILES is read from it.

One experiment has as its target T1, WNV NS2B-NS3 protease (West Nile virus, UniProt P06935).
T1 construct: WNV NS2B 40-amino acid cofactor together with the NS3 protease domain
Description: Enzyme kinetic inhibition of WNV NS2B-NS3 protease construct (Dixon plot). Conditions: covalently linked WNV NS2B-NS3 construct; substrate Phac-Leu-Lys-Lys-Arg-AMC; Dixon plots, average of at least two measurements. It counts as biochemical. On the procedure: (§1) All measurements were performed at room temperature in black flat-bottom 96-well plates (Nunc, Langenselbold, Germany) using microplate readers (Tecan Safire^2, λex = 380 nm and λem = 460 nm, Tecan Group Ltd., Männedorf, Switzerland or Fluoroskan Ascent type 374, λex = 355 nm and λem = 460 nm; Thermo Fisher Scientific, Vantaa, Finland). The assays with the flavivirus protease constructs were performed with 125 μl buffer (100 mM Tris pH 8.5 containing 20% glycerol, 0.01% Triton X-100, and the inhibitor), 50 μl substrate solution, and were started by addition of 25 μl enzyme solution (total assay volume 200 μl).
For measurements with the covalently linked WNV NS2B-NS3 protease construct (∼4 nM in assay) the substrate Phac-Leu-Lys-Lys-Arg-AMC ×3 TFA (50 µM, 100 µM and 200 µM in assay, KM = 47.5 µM) was used, as described previously.
(§2) The DENV serotype 2 NS2B-NS3 protease construct was prepared from an identical clone as described by D’Arcy et al.[26] The purification of the protease was carried out in a buffer with high ion-strength and low pH value, in the absence of glycerol (20 mM Bis-Tris, 500 mM NaCl, pH 6.3), in order to prevent autolysis of the enzyme. Purification was performed by using a 5 ml HisTrapTM FF column (GE Healthcare) and subsequently, a HiLoad 16/60 SuperdexTM 75 column (GE Healthcare). The assays with the DENV-2 NS2B-NS3^pr° (∼39 nM in well) were performed with the substrate Phac-Lys-Arg-Arg-AMC ×3 TFA (125 µM, 62.5 µM and 31.25 µM in assay, KM = 60 µM). All Ki values were obtained from Dixon plots[27] and are the average of at least two measurements. Due to the weak potency of most compounds against the DENV-2 NS2B-NS3 protease construct, only the percentage of inhibition at a constant inhibitor concentration of 100 µM in the presence of 125 µM substrate was determined.
4-GMe-Phac-Lys-Lys-GCMA came in with a Ki of 0.23 µM.
Molecule `N=C(N)NCc1ccc(CC(NC(=O)Cc2ccccc2)C(=O)NC(CCCCN)C(=O)NCC2CCC(NC(=N)N)CC2)cc1` (centres unmarked) [inhibitor 9] returned a Ki of 44 µM.
Turning to `N=C(N)NCCC[C@H](NC(=O)[C@H](CCCCN)NC(=O)[C@H](CCCCN)NC(=O)Cc1ccccc1)C(=O)NCCCCCC(N)=O` [inhibitor 26] (HELM PEPTIDE1{[O=C(Cc1ccccc1)[*:2]].K.K.R.[O=C(CCCCCN[*:1])[*:2]].[am]}$$$$V2.0), the Ki turned out to be 17 µM.
The molecule `N=C(N)NCCC[C@H](NC(=O)[C@H](CCCCN)NC(=O)[C@H](CCCCN)NC(=O)Cc1ccccc1)C(=O)O` [inhibitor 28, Phac-Lys-Lys-Arg-OH] (HELM PEPTIDE1{[O=C(Cc1ccccc1)[*:2]].K.K.R}$$$$V2.0) registered a Ki of 27 µM.

The target in a further experiment is T2, DENV serotype 2 NS2B-NS3 protease (Dengue virus type 2, UniProt P14340).
T2 construct: The proteolytic activity of WNV and DENV is located in the N-terminal part of its NS3 protein; made in house
Description: Enzyme kinetic inhibition of DENV-2 NS2B-NS3 protease construct. It counts as biochemical, Dengue virus serotype 2. Conditions: 100 μM inhibitor in the presence of 125 μM substrate; read-out: % Inhib. (DENV). The procedure: as §1, §2
As to `N=C(N)NCCC[C@H](NC(=O)[C@H](CCCCN)NC(=O)[C@H](CCCCN)NC(=O)C(N)C1CCCCC1)C(N)=O` (some centres unmarked) [inhibitor 42] (HELM PEPTIDE1{[NC(C(=O)[*:2])C1CCCCC1].K.K.R.[am]}$$$$V2.0), the inhibition at 100 µM stood at 31.7%.

The experiment is the same for the next values; noted with them: DENV-2 NS2B-NS3 construct; substrate Phac-Lys-Arg-Arg-AMC; Dixon plots.
In turn, 4-GMe-Phac-Lys-Lys-GCMA yielded a Ki of 67 µM.

In a further experiment the target is covalently linked WNV NS2B-NS3 protease construct (West Nile virus) (UniProt P06935). Description: enzyme inhibition kinetics (Ki from Dixon plots, fluorogenic substrate); WNV NS2B-NS3 construct ~4 nM in assay; substrate Phac-Leu-Lys-Lys-Arg-AMC 50, 100 and 200 µM (KM = 47.5 µM); 100 mM Tris pH 8.5, 20% glycerol, 0.01% Triton X-100; room temperature; Ki the average of at least two measurements.
Conditions: not given
Molecule “1-Adamantylacetic acid-Lys-Lys-Arg-NH2 (peptide)” returned a Ki of 13.8 µM.
“1-Adamantylglycine-Lys-Lys-Arg-NH2 (peptide)” gave a Ki of 70 µM.
For the molecule “3,4-(Methylenedioxy)-Phac-Lys-Lys-Arg-NH2 (peptide)”, the Ki came to 0.68 µM.
The molecule “3,4-Cl2-Phac-Lys-Lys-Arg-Gly-NH2 (peptide)” yielded a Ki of 1.8 µM.
With 3,4-Cl2-Phac-Lys-Lys-Arg-NH2 (peptide), the Ki worked out at 1.13 µM.
The same measure, in the same setting: next, 3-AMe-Phac-Lys-Lys-Arg-NH2 (peptide): 0.36 µM; 3-GMe-Phac-Lys-Lys-Arg-NH2 (peptide): 0.18 µM; 3-NH2-Phac-Lys-Lys-Arg-NH2 (peptide): 1.2 µM.
Molecule 4-AMe-Phac-Lys-Lys-Arg-NH2 (peptide) yielded a Ki of 0.38 µM.
The molecule 4-OH-Phac-Lys-Lys-Arg-NH2 (peptide) yielded a Ki of 0.54 µM.
In turn, 4-Phenyl-Phac-Lys-Lys-Arg-NH2 (peptide) displayed a Ki of 0.53 µM.
As to “AC-D/L-α-phenylglycine-Lys-Lys-Arg-NH2 (peptide)”, the Ki was 4.18 µM.
For “Cyclohexylacetic acid-Lys-Lys-Arg-NH2 (peptide)”, the Ki was found to be 4.8 µM.
In turn, “D/L-α-phenylglycine-Lys-Lys-Arg-NH2 (peptide)” showed a Ki of 3.6 µM.
In turn, Phac-Lys-Lys-Arg-Aca-NH2 (peptide) displayed a Ki of 17 µM.
Molecule Phac-Lys-Lys-Arg-Ala-NH2 (peptide) gave a Ki of 25 µM.
The same measure, in the same setting: the figure for Phac-Lys-Lys-Arg-DAla-NH2 (peptide) is 75 µM; for Phac-Lys-Lys-Arg-Gaba-NH2 (peptide) it is 15 µM; for Phac-Lys-Lys-Arg-Gly-NH2 (peptide) it is 2.56 µM.
Molecule Phac-Lys-Lys-Arg-NH2 (peptide) yielded a Ki of 2.47 µM.
With Phac-Lys-Lys-Arg-Pro-NH2 (peptide), the Ki was 200 µM.
Molecule Phac-Lys-Lys-Arg-Sar-NH2 (peptide) yielded a Ki of 50 µM.
Still for that read-out and setting: the figure for Phac-Lys-Lys-Arg-Tle-NH2 (peptide) is 140 µM.
With Phac-Lys-Lys-Arg-Val-NH2 (peptide), the Ki was found to be 105 µM.
Molecule “α-Cyclohexylglycine-Lys-Lys-Arg-NH2 (peptide)” returned a Ki of 26.3 µM.
Consider B1, for which the Ki came to 1.56 µM.
